Biological target: T1, 6×His-SlmA (E. coli), P0C093
T1 chain: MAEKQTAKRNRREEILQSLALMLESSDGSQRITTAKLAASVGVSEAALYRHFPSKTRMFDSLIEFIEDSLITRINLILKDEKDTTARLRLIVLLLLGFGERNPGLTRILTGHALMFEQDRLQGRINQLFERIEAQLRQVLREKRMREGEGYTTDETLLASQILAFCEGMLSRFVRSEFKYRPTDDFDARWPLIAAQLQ
Experiment: BLI; biotinylated SBS17-30mer (50 nM) on streptavidin tips, loaded with 4 µM SlmA or SlmA mutant; FtsZ or variants (4 µM, preincubated with 1 mM GDP) or peptides (up to 320 µM) in solution; 1× Pol buffer, room temperature
Conditions: remark: other sources report otherwise

## DYLDIPAFLRKQAD [FtsZ C-terminal tail peptide (Ztail-WT)]
  Kd: 81 µM

Source: paper PMC4117426
